Literature values in publication PMC7764831.

Target: p53 (Homo sapiens) (UniProt P04637)
Sequence (P04637 whole entry): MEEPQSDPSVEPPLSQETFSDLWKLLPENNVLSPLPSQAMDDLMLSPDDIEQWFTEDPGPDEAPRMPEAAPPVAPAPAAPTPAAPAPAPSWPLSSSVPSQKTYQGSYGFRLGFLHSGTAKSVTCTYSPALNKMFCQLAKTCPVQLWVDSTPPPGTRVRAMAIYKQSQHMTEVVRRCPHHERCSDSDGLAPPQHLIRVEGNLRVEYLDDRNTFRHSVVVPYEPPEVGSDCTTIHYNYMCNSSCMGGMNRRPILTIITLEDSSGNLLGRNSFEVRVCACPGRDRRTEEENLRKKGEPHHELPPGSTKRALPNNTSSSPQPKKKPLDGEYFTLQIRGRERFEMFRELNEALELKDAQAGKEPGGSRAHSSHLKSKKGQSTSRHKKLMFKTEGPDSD

Sequence of Azurin (P00282 21-148): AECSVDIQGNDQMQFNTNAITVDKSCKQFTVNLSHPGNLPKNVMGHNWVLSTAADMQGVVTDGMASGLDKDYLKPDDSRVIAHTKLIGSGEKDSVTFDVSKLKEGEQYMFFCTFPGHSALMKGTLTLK

Substance: Azurin (from UniProt P00282)
- Kd: 6 µM
